From paper PMC12579213 (2025)

Columns and labels:
Assay in all cases: BLI
GST-tagged Rac1 (Q61L) [1] = biological target: T1, GST-tagged Rac1 (Q61L) (UniProt P63000 1-192, Q61L)
[2] = biological target: T2, GST-tagged Rac1F37W (Q61L) (UniProt P63000 1-192, F37W | Q61L)
GST-tagged RhoA (Q63L) [3] = biological target: T3, GST-tagged RhoA (Q63L) (UniProt P61586 1-193, Q63L)
GST-tagged Rac1 (Q61L) [4] = biological target: T1, GST-tagged Rac1 (Q61L); remark: listed apart in the source
[5] = biological target: T2, GST-tagged Rac1F37W (Q61L); remark: listed apart in the source
GST-tagged RhoA (Q63L) [6] = biological target: T3, GST-tagged RhoA (Q63L); remark: listed apart in the source

koff (GST-tagged Rac1 (Q61L) [1]): 0.00156 s⁻¹
koff [2]: 0.00474 s⁻¹
koff (GST-tagged RhoA (Q63L) [3]): 0.000699 s⁻¹
Kd (GST-tagged Rac1 (Q61L) [4]): 56 nM
Kd [5]: 179 nM
Kd (GST-tagged RhoA (Q63L) [6]): 31 nM
B1: 6xHis-tagged RBD_(ROCK1) (domain or fragment)
chain: KDHTVSRLEEANSMLTKDIEILRRENEELTEKMKKAEEEYKLEKEEEISNLKAAFEKNINTERTLKTQAVNKLAEIMNRKDF
